Data set [1] deals with T1, UM-Pif1 (unmodified Pif1) (Saccharomyces cerevisiae, UniProt P07271 1-859).
T1 sequence: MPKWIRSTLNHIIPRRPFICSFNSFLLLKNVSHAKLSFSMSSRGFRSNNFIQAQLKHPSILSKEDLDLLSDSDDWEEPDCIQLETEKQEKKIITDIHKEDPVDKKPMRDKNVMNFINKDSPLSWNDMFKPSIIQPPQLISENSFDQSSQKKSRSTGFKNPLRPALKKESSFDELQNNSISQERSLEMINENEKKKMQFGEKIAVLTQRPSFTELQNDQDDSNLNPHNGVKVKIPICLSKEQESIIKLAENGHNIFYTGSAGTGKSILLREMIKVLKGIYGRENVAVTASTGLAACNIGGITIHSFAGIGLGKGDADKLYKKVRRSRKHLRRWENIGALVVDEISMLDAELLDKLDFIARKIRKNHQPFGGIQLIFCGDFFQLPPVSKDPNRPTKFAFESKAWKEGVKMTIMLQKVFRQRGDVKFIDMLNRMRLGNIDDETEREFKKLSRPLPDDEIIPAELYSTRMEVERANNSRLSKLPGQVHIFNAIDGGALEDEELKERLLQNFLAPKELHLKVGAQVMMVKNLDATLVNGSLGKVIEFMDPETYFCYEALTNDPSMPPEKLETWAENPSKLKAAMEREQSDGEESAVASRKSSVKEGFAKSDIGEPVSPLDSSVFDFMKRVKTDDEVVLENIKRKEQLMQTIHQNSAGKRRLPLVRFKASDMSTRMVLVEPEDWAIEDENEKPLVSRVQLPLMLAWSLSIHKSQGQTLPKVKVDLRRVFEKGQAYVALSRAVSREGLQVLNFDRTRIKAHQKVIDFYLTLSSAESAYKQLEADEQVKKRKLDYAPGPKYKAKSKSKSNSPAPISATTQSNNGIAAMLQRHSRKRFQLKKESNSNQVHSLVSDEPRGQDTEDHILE
Description: BLI. In general terms: In BLI a coated tip is dipped into the sample, and binding shifts an interference pattern.

The target in a further data set is T2, UM-Pif1ΔN (unmodified) (Saccharomyces cerevisiae, UniProt P07271 234-859, del1-233).
T2 sequence: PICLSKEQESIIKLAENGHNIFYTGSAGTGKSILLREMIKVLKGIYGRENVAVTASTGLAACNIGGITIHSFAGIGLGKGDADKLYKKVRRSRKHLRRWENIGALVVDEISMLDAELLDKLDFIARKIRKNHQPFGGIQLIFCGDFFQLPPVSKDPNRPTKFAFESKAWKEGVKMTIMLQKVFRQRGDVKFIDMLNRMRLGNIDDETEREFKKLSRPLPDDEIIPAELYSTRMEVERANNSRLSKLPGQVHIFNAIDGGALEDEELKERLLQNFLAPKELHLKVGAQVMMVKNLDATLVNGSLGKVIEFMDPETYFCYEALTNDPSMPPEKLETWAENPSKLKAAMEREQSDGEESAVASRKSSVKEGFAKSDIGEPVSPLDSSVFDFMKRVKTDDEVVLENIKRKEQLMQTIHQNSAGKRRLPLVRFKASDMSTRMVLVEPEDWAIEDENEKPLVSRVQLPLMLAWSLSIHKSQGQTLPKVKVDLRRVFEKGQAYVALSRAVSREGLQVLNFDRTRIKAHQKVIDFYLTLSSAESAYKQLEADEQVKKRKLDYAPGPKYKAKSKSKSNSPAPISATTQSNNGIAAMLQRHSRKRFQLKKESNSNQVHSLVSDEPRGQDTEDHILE
Description: BLI.

By Kd is commonly meant the constant that tells how readily two partners part at equilibrium. High values mean lower affinity, low ones higher affinity. In the case of TTTTTTTTTTTTTTTTTTTTTTTTTGTGTCACTCACATAGCGTTC (ssDNA) [T1 45-nt ssDNA], the Kd in data set [1] stood at 19.1 ± 5.1 nM; in the data set with UM-Pif1ΔN (unmodified), 14.1 ± 1.5 nM.

Values taken from article doi:10.1101/2020.07.06.189761.
